Data reported in patent US20120003180A1.

How the values were obtained:
[1] = molecular target: α5β1 integrin protein, covalently immobilised on the optical biosensor cuvette; assay: optical biosensor (IAsys), α5β1 immobilised
[2] = molecular target: α5β1 integrin protein, covalently immobilised on the optical biosensor cuvette; assay: optical biosensor (IAsys), α5β1 immobilised, D3904A DV free in solution; Kd from Koff/Kon
[3] = molecular target: α5β1 integrin protein, covalently immobilised on the optical biosensor cuvette; assay: optical biosensor (IAsys), α5β1 immobilised, D3904A DV free in solution
[4] = molecular target: α5β1 integrin protein, covalently immobilised on the optical biosensor cuvette; assay: optical biosensor (IAsys), α5β1 immobilised, LG3 free in solution
[5] = molecular target: α5β1 integrin protein, covalently immobilised on the optical biosensor cuvette; assay: optical biosensor (IAsys), α5β1 immobilised, LG3 free in solution; Kd from Koff/Kon

Row | Substance | affinity relative to non-mutated DV (fold of the affinity of non-mutated DV) [1] | Kd [2] [nM] | koff [3] [s⁻¹] | koff [4] [s⁻¹] | Kd [5] [mM]
1 | D3904A DV (perlecan Domain V with DGR mutated to AGR), C-terminal 6×His tag (from UniProt P98160 3687-4391) (ligand) | < 0.5 | 370 | 0.22 | – | –
2 | LG3, the C-terminal fragment of perlecan Domain V, with C-terminal 6×His tag (from UniProt P98160 4197-4391) (ligand) | – | – | – | 1.7 | 1
